Each substance was assayed against Hoxc-8 (in the transfected C3H10T1/2 and 2T3 cells) (assay: cell-based or functional assay).

osteopontin promoter activity (OPN-266 luciferase reporter, C3H10T1/2 cells) | Substance
3 to 5 fold | Smad1-L (aa 145-276) fused with a nuclear localization signal
3 to 5 fold | Smad1-M (101-191) fused with a nuclear localization signal
3 to 5 fold | Smad1-NL (amino acids 3-276) fused with a nuclear localization signal

— US20020082235A1
